Measurements reported in article PMC7367177.

Target: ItaT(G115D) mutant protein (E. coli HS)
Assay: crystal structure

Substance: ItaT(G115D) mutant protein (enzyme)
- stoichiometry N: 2
